Reference: PMC9482650, “Quantitative fragmentomics allow affinity mapping of interactomes” (Nature Communications, 2022)

What was measured:
Experiment in all cases: holdup assay
Parameters in all cases: key: below the threshold = too weak to quantify, mostly under pKd 3.1 to 4
APBA2_2, Q99767 = biological target: T1, APBA2_2, Q99767
T1 sequence (Q99767 654-744, limits assumed, looked up): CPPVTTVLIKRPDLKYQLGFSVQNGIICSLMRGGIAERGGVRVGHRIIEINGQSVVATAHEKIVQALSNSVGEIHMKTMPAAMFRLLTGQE

ARHGEF12, Q9NZN5-2 = biological target: ARHGEF12, Q9NZN5-2
Sequence of ARHGEF12, Q9NZN5-2 (Q9NZN5 other isoform, or with tags, fused parts or gaps): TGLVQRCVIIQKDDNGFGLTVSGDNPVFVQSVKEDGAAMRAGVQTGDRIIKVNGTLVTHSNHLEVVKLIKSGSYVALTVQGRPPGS

Inadl_6, Q8NI35 = biological target: Inadl_6, Q8NI35
Sequence of Inadl_6, Q8NI35 (Q8NI35 1058-1167): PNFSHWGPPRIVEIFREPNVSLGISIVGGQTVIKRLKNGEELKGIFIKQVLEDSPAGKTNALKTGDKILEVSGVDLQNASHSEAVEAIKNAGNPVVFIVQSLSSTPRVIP

LNX1_2, Q8TBB1 = biological target: LNX1_2, Q8TBB1
Sequence of LNX1_2, Q8TBB1 (Q8TBB1 371-470): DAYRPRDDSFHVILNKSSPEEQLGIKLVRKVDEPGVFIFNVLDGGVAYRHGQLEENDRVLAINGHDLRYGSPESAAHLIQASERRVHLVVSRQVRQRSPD

NHERF4_4, Q86UT5 = biological target: NHERF4_4, Q86UT5
Sequence of NHERF4_4, Q86UT5 (Q86UT5 464-550): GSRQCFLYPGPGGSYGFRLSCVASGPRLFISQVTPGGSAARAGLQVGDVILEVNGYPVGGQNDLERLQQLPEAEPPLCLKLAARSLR

GRIP1_2, Q9Y3R0 = biological target: T2, GRIP1_2, Q9Y3R0
T2 sequence (Q9Y3R0 145-248, limits assumed, looked up): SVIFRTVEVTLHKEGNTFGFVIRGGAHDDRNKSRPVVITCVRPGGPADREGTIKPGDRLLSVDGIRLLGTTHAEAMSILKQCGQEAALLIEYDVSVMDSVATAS

MAGI2_2, Q86UL8 = biological target: MAGI2_2, Q86UL8
Sequence of MAGI2_2, Q86UL8 (Q86UL8 410-522): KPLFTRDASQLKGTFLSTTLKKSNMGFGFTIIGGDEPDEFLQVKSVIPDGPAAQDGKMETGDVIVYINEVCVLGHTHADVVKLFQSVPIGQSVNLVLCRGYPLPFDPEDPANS

LIMK2, P53671 = biological target: LIMK2, P53671
Sequence of LIMK2, P53671 (P53671 143-248): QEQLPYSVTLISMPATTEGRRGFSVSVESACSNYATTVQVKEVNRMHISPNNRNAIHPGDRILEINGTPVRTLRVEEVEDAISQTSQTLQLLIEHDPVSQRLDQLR

MAGI1_1, Q96QZ7 = biological target: MAGI1_1, Q96QZ7
Sequence of MAGI1_1, Q96QZ7 (Q96QZ7 1-106): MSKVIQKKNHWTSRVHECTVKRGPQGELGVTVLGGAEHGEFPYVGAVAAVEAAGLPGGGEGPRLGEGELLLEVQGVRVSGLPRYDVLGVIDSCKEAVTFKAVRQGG

MAGI2_5, Q86UL8 = biological target: MAGI2_5, Q86UL8
Sequence of MAGI2_5, Q86UL8 (Q86UL8 915-1017): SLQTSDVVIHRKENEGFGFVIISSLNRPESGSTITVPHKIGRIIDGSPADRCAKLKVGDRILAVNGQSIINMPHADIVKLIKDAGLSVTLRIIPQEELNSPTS

MPDZ_12, O75970 = biological target: T3, MPDZ_12, O75970
T3 sequence (O75970 1857-1958, limits assumed, looked up): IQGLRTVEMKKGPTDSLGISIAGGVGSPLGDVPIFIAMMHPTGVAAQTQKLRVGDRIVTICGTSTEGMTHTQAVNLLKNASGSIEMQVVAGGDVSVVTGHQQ

GRIP1_7, Q9Y3R0 = biological target: T4, GRIP1_7, Q9Y3R0
T4 sequence (Q9Y3R0 999-1096, limits assumed, looked up): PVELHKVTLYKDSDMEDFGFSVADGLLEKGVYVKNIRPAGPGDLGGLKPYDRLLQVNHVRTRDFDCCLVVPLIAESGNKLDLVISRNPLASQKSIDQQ

FRMPD2_2, Q68DX3 = biological target: FRMPD2_2, Q68DX3
Sequence of FRMPD2_2, Q68DX3 (Q68DX3 944-1038): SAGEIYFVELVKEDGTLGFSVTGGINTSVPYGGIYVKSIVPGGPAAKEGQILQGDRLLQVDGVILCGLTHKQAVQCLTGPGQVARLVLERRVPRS

DFNB31_1, Q9P202 = biological target: T5, DFNB31_1, Q9P202
T5 sequence (Q9P202 135-233, limits assumed, looked up): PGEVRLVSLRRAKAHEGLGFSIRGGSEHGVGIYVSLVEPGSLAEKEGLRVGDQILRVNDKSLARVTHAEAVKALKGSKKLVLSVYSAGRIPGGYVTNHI

GRID2IP_2, A4D2P6 = biological target: GRID2IP_2, A4D2P6
Sequence of GRID2IP_2, A4D2P6 (A4D2P6 272-370): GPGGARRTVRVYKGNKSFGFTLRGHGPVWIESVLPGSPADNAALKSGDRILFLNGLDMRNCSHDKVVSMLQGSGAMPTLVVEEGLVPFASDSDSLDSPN

CARD11, Q9BXL7 = biological target: T6, CARD11, Q9BXL7
T6 sequence (Q9BXL7 662-765, limits assumed, looked up): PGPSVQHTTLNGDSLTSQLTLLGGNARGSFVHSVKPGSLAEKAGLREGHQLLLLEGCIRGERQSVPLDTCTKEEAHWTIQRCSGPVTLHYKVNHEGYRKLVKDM

Inadl_9, Q8NI35 = biological target: Inadl_9, Q8NI35
Sequence of Inadl_9, Q8NI35 (Q8NI35 1530-1615): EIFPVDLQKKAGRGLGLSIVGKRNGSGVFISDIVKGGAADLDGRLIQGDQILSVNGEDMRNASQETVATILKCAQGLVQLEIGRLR

NHERF3_3, Q5T2W1 = biological target: T7, NHERF3_3, Q5T2W1
T7 sequence (Q5T2W1 238-333, limits assumed, looked up): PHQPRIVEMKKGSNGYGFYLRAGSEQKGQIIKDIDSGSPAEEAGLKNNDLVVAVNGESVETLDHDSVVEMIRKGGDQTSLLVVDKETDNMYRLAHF

SIPA1L2, Q9P2F8 = biological target: T8, SIPA1L2, Q9P2F8
T8 sequence (Q9P2F8 945-1036, limits assumed, looked up): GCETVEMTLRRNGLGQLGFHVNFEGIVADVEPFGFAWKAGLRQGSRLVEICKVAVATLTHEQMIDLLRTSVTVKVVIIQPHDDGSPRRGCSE

GRIP2_4, Q9C0E4 = biological target: GRIP2_4, Q9C0E4
Sequence of GRIP2_4, Q9C0E4 (Q9C0E4 446-548): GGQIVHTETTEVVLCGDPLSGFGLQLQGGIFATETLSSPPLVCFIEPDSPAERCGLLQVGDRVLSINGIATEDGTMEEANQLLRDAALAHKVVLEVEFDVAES

PDLIM1, O00151 = biological target: PDLIM1, O00151
Sequence of PDLIM1, O00151 (O00151 1-87): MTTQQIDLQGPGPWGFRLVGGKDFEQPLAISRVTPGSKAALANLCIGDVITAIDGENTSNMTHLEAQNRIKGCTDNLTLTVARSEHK

CASK, O14936 = biological target: CASK, O14936
Sequence of CASK, O14936 (O14936 487-570): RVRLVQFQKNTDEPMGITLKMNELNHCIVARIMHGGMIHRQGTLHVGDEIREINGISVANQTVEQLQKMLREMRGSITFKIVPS

RADIL, Q96JH8 = biological target: T9, RADIL, Q96JH8
T9 sequence (Q96JH8 971-1071, limits assumed, looked up): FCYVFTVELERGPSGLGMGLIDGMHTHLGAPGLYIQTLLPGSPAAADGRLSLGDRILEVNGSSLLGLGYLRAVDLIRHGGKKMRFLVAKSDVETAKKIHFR

GRIP1_3, Q9Y3R0 = biological target: T10, GRIP1_3, Q9Y3R0
T10 sequence (Q9Y3R0 247-346, limits assumed, looked up): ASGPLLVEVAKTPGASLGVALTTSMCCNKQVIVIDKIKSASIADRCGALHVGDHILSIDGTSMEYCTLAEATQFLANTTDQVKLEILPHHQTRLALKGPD

IL16_1, Q14005 = biological target: IL16_1, Q14005
Sequence of IL16_1, Q14005 (Q14005 210-306): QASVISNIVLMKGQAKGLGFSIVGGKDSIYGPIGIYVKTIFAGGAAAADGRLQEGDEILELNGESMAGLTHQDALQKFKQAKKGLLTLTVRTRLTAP

LNX2_3, Q8N448 = biological target: T11, LNX2_3, Q8N448
T11 sequence (Q8N448 463-564, limits assumed, looked up): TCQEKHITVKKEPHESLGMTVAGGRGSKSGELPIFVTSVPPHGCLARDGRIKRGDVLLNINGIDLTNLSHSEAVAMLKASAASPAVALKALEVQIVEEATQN

GRID2IP_1, A4D2P6 = biological target: GRID2IP_1, A4D2P6
Sequence of GRID2IP_1, A4D2P6 (A4D2P6 1-87): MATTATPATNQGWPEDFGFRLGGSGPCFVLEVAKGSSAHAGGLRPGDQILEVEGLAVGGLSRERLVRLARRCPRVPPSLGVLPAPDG

[1] = plain residues with an end cap or a label only (N-terminal biotin on a linker: ado-ado)
[2] = plain residues with an end cap or a label only (N-terminal biotin on a linker: ttds)

B1: HTR2C, P28335 (peptide)
chain: SVVSERISSV
In the case of B1, the pKd (APBA2_2, Q99767; [1]) is reported as “below the threshold”, the pKd (ARHGEF12, Q9NZN5-2; [1]) is reported as 4.18 and the pKd (Inadl_6, Q8NI35; [1]) is reported as “below the threshold”. The pKd (LNX1_2, Q8TBB1; [1]) was “below the threshold”, the pKd (NHERF4_4, Q86UT5; [1]) was “below the threshold” and the pKd (GRIP1_2, Q9Y3R0; [1]) was “below the threshold”. The pKd (MAGI2_2, Q86UL8; [1]) was 3.77, the pKd (LIMK2, P53671; [1]) was “below the threshold” and the pKd (MAGI1_1, Q96QZ7; [1]) was “below the threshold”. The pKd (MAGI2_5, Q86UL8; [1]) was 4.01, the pKd (MPDZ_12, O75970; [1]) was “below the threshold” and the pKd (GRIP1_7, Q9Y3R0; [1]) was “below the threshold”. The pKd (FRMPD2_2, Q68DX3; [1]) was 4.25, the pKd (DFNB31_1, Q9P202; [1]) was “below the threshold” and the pKd (GRID2IP_2, A4D2P6; [1]) was 4.44. The pKd (CARD11, Q9BXL7; [1]) was “below the threshold”, the pKd (Inadl_9, Q8NI35; [1]) was “below the threshold” and the pKd (NHERF3_3, Q5T2W1; [1]) was “below the threshold”. For the same binder, the pKd (SIPA1L2, Q9P2F8; [1]) was “below the threshold”, the pKd (GRIP2_4, Q9C0E4; [1]) was “below the threshold” and the pKd (PDLIM1, O00151; [1]) was “below the threshold”. For the same binder, the pKd (CASK, O14936; [1]) was “below the threshold”, the pKd (RADIL, Q96JH8; [1]) was 3.74 and the pKd (GRIP1_3, Q9Y3R0; [1]) was “below the threshold”. For the same binder, the pKd (IL16_1, Q14005; [1]) was 4.56, the pKd (LNX2_3, Q8N448; [1]) was “below the threshold” and the pKd (GRID2IP_1, A4D2P6; [1]) was “below the threshold”.

B2: PBK, Q96KB5 (peptide)
chain: HIVEALETDV
B2 was tested, and the pKd (APBA2_2, Q99767; [2]) was “below the threshold”, the pKd (ARHGEF12, Q9NZN5-2; [2]) was 4.23 and the pKd (Inadl_6, Q8NI35; [2]) was 3.78. For the same binder, the pKd (LNX1_2, Q8TBB1; [2]) was “below the threshold”, the pKd (NHERF4_4, Q86UT5; [2]) was “below the threshold” and the pKd (GRIP1_2, Q9Y3R0; [2]) was “below the threshold”. The pKd (MAGI2_2, Q86UL8; [2]) was “below the threshold”, the pKd (LIMK2, P53671; [2]) was “below the threshold” and the pKd (MAGI1_1, Q96QZ7; [2]) was “below the threshold”. For the same binder, the pKd (MAGI2_5, Q86UL8; [2]) was 3.98, the pKd (MPDZ_12, O75970; [2]) was “below the threshold” and the pKd (GRIP1_7, Q9Y3R0; [2]) was “below the threshold”. It also gave a pKd (FRMPD2_2, Q68DX3; [2]) of 4.66, a pKd (DFNB31_1, Q9P202; [2]) of 4.03 and a pKd (GRID2IP_2, A4D2P6; [2]) of 3.96. The pKd (CARD11, Q9BXL7; [2]) was “below the threshold”, the pKd (Inadl_9, Q8NI35; [2]) was “below the threshold” and the pKd (NHERF3_3, Q5T2W1; [2]) was “below the threshold”. For the same binder, the pKd (SIPA1L2, Q9P2F8; [2]) was “below the threshold”, the pKd (GRIP2_4, Q9C0E4; [2]) was “below the threshold” and the pKd (PDLIM1, O00151; [2]) was 3.91. The pKd (CASK, O14936; [2]) was “below the threshold”, the pKd (RADIL, Q96JH8; [2]) was “below the threshold” and the pKd (GRIP1_3, Q9Y3R0; [2]) was “below the threshold”. The pKd (IL16_1, Q14005; [2]) was 3.97, the pKd (LNX2_3, Q8N448; [2]) was “below the threshold” and the pKd (GRID2IP_1, A4D2P6; [2]) was “below the threshold”.
